Experimental data taken from article PMC10992996.

Target: Human canonical CRB1 (Crumbs homolog 1) (UniProt P82279)
Assay: co-IP (FLAG-IP) and Western blot quantification
Conditions: co-transfected in HEK293T cells; three biological replicates; parent: est. 1.0; read off a plot

Chain of Human canonical CRB1 (Crumbs homolog 1) (P82279 26-1406): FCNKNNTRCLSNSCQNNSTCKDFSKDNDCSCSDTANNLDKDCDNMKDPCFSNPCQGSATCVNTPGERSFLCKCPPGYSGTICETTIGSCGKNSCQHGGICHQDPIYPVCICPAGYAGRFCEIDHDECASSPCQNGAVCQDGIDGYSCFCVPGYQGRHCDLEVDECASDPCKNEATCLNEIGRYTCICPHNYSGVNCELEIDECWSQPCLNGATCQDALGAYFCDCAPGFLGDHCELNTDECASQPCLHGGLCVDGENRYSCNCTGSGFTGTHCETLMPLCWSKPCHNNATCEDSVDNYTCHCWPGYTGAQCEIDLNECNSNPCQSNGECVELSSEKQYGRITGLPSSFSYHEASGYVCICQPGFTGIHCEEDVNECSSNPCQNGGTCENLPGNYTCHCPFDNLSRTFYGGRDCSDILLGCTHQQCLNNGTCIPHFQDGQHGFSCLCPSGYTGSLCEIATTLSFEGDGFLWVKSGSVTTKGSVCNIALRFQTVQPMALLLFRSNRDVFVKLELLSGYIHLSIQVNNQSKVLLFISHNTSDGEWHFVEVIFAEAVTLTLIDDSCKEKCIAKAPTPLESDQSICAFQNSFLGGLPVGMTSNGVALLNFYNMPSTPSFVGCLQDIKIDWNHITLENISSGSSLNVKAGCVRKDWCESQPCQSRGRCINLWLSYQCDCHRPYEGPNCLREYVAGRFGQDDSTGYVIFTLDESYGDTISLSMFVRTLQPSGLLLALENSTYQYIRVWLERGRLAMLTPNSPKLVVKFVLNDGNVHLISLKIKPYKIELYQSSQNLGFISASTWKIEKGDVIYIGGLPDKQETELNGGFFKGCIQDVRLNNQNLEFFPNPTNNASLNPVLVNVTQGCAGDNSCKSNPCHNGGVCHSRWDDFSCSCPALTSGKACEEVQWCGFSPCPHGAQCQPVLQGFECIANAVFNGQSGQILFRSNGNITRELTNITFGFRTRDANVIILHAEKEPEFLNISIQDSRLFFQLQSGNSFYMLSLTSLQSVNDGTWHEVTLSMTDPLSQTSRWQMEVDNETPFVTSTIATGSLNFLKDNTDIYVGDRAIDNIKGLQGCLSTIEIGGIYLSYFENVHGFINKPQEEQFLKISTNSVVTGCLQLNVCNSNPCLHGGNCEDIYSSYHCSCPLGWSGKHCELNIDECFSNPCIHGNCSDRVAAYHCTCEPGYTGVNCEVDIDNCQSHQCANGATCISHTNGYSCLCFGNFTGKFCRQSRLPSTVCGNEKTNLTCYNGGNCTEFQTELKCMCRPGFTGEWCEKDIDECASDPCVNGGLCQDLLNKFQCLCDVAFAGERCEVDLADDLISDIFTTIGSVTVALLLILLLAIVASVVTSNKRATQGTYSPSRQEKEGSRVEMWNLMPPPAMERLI

ratio to parent | Substance
1.1 | Human canonical CRB2 (Crumbs homolog 2) (from UniProt Q5IJ48-1) p.N800K
1.1 | Human canonical CRB2 (Crumbs homolog 2) (from UniProt Q5IJ48-1) p.W498C
1.1 | Human canonical CRB2 (Crumbs homolog 2) (from UniProt Q5IJ48-1) p.C620S
1 | Human canonical CRB2 (Crumbs homolog 2) (from UniProt Q5IJ48-1) p.R1115C
0.94 | Human canonical CRB2 (Crumbs homolog 2) (from UniProt Q5IJ48-1) p.G839W
0.9 | Human canonical CRB2 (Crumbs homolog 2) (from UniProt Q5IJ48-1) p.R633W
1.2 | Human canonical CRB2 (Crumbs homolog 2) (from UniProt Q5IJ48-1) p.C1129S
1.1 | Human canonical CRB2 (Crumbs homolog 2) (from UniProt Q5IJ48-1) p.L777H
1.1 | Human canonical CRB2 (Crumbs homolog 2) (from UniProt Q5IJ48-1) p.C629S
0.97 | Human canonical CRB2 (Crumbs homolog 2) (from UniProt Q5IJ48-1) p.R628C
